Experimental findings from article PMC5434802 are described below.

Holding throughout (assay): EMSA
What all share (conditions): EMSA conditions not in material; end-labelled fragments pre-incubated with Fis and/or FNR before RNA polymerase
A general note: A gel shift assay detects complexes by their altered migration in electrophoresis.

In data set [1] the target is T1, Fis (Escherichia coli K-12?) (UniProt P0A6R3).
T1 sequence: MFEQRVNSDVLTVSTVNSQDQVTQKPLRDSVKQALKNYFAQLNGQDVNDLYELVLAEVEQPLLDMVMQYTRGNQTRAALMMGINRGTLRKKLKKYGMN

The target of data set [2] is T2, FNR D154A D154A (Escherichia coli K-12?) (UniProt P0A9E5).
T2 sequence: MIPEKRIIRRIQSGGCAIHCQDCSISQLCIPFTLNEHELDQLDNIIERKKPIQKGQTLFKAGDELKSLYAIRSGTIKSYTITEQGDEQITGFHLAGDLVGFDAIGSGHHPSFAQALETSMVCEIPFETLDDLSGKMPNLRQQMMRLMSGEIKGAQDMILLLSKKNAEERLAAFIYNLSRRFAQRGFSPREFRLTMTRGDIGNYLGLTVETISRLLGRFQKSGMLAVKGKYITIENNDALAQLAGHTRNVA

The target in data set [3] is Fis;FNR D154A D154A (Escherichia coli K-12?;Escherichia coli K-12?) (UniProt P0A6R3+P0A9E5).
Data set [4] addresses Fis;FNR D154A;RNA polymerase D154A (Escherichia coli K-12?;Escherichia coli K-12?;Escherichia coli) (UniProt P0A6R3+P0A9E5+P0A7Z4+P0A8V2+P0A8T7+P0A800+P00579).
Data set [5] has as its target RNA polymerase (Escherichia coli) (UniProt P0A7Z4+P0A8V2+P0A8T7+P0A800+P00579).
The target in data set [6] is FNR D154A;RNA polymerase D154A (Escherichia coli K-12?;Escherichia coli) (UniProt P0A9E5+P0A7Z4+P0A8V2+P0A8T7+P0A800+P00579).

Turning to “AATTCCTGACTAACTCTAAAGTGGTATTTTACATGCACTTACAATTGATTAAAGACAACATTCACAGTGTGGTTATTTGTTACACTTAGGGGCGAGCAATGTA / AGCTTACATTGCTCGCCCCTAAGTGTAACAAATAACCACACTGTGAATGTTGTCTTTAATCAATTGTAAGTGCATGTAAAATACCACTTTAGAGTTAGTCAGG [pnrf97 EHEC]”, the binding entry in data set [1], in data set [2] and in data set [3] was “binds” each time.

Take “AGCTTACATTGCTCGCCCCTATGTGTAACAAATAACCACACTGTGAATGTTGTCTTTAATCAATTGTAAGTGCATGTAAAATACCACTTTAGAGTTAGTCAGG / AATTCCTGACTAACTCTAAAGTGGTATTTTACATGCACTTACAATTGATTAAAGACAACATTCACAGTGTGGTTATTTGTTACACATAGGGGCGAGCAATGTA [pnrf97 E. coli K-12]”: the binding result is recorded as “binds more weakly” in data set [4]; “binds” in data set [1]; “binds” in data set [2]; “binds” in data set [3]; “binds” in data set [5]; “binds more weakly” in data set [6].
